Data reported in the Human Domainome abundance scans (Beltran et al. 2025).

B1: Steroid hormone receptor ERR2, residues 100 to 176; numbered along this chain, O95718 (parent)
chain: KRLCLVCGDIASGYHYGVASCEACKAFFKRTIQGNIEYSCPATNECEITKRRRKSCQACRFMKCLKVGMLKEGVRLD

Variants of: B1
Assay: abundance fitness (aPCA) (normalised: wild type 0, dead -1); higher = more abundant; growth selection in yeast, the domain comes from the species named
Conditions: Homo sapiens

Abundance fitness, by site and new letter:
R52: Q 0.128 | S -0.155 | T 0.039 | V -0.003 | W -0.043 | Y -0.452
R53: A 0.005 | C -0.103 | D 0.026 | E 0.073 | F 0.065 | G 0.049 | K 0.015 | L 0.074 | M 0.107 | N 0.027 | P -0.069 | Q 0.096 | S -0.114 | T 0.063 | V -0.008 | W -0.084 | Y -0.14
K54: A 0.009 | C -0.351 | D 0.092 | E 0.129 | F -0.243 | G 0.155 | H 0.144 | I 0.073 | L 0.005 | N 0.175 | Q 0.195 | R 0.008 | T -0.024 | V 0.007 | W -0.05 | Y 0.091
S55: A 0.278 | C 0.393 | D 0.318 | G 0.336 | H 0.351 | I 0.344 | K 0.149 | L 0.341 | M 0.374 | N 0.405 | P 0.257 | R 0.22 | T 0.277 | W 0.263 | Y 0.206
C56: A -0.828 | D -1.17 | E -0.627 | F -0.936 | G -0.718 | H -0.599 | I -0.679 | L -0.76 | M -0.9 | N -0.845 | P -0.666 | R -0.872 | S -0.847 | T -0.691 | W -0.722 | Y -0.884
Q57: A -0.018 | C -0.152 | D -0.042 | F -0.243 | G 0.122 | H -0.347 | I -0.633 | K -0.118 | L -0.232 | M -0.221 | N -0.246 | P -0.066 | R -0.17 | S -0.125 | T -0.325 | V -0.213 | W -0.15
A58: C -0.346 | D -0.334 | E -0.235 | F -0.377 | G -0.205 | H -0.445 | K -0.089 | L -0.44 | M -0.227 | N 0.044 | P -0.61 | Q -0.145 | R -0.076 | S -0.33 | T -0.518 | V -0.772 | W -0.308 | Y -0.347
C59: A -0.686 | D -0.513 | E -0.704 | F -0.451 | H -0.545 | I -0.542 | K -0.483 | L -0.873 | M -0.631 | N -0.711 | P -0.688 | Q -0.891 | R -0.755 | S -0.887 | T -0.872 | V -0.576 | W -0.684 | Y -0.745
R60: A -0.031 | C 0.013 | D -0.828 | E -0.764 | F 0.211 | H 0.254 | I -0.23 | K 0.177 | L 0.183 | M 0.108 | P -0.798 | Q 0.173 | T 0.051 | V -0.098 | Y 0.279
F61: A -0.444 | C -1.06 | D -1.06 | E -0.892 | G -0.602 | I -0.074 | K -0.266 | M 0 | N -0.541 | P -1.29 | Q -0.257 | R -0.487 | S -0.509 | T -0.759 | V -0.269 | W 0.125
M62: A 0.013 | C -1.07 | D -0.057 | E 0.086 | G -0.059 | H -0.496 | I -0.148 | K 0.141 | L -0.135 | P -1.05 | Q 0.04 | R -0.026 | S 0.148 | T 0.106 | V -0.006 | W -0.136
K63: A -0.233 | C -0.242 | D -0.783 | E -0.596 | F -0.931 | G -0.534 | H -0.359 | I -0.461 | L -0.55 | M -0.11 | N -0.605 | P -0.914 | Q -0.21 | R -0.145 | S -0.611 | T -0.226 | V -0.522 | W -0.58 | Y -0.982
C64: A -0.301 | D -1.05 | E -0.561 | F -0.686 | G -0.582 | H -1.04 | I -0.478 | K -0.767 | L -0.826 | M -0.273 | N -0.483 | P -0.747 | R -0.751 | S -0.396 | T -0.658 | V -0.836 | W -0.531 | Y -0.95
L65: A -0.256 | D -0.548 | E -0.132 | F -0.433 | G -0.534 | H -0.797 | I -0.289 | K -0.466 | M -0.175 | N -0.813 | P -0.753 | Q -0.102 | R -0.459 | S -0.442 | T -0.516 | V -0.082 | W -0.697 | Y -0.456
K66: C -0.354 | D -0.103 | E -0.073 | F -0.585 | G -0.256 | H -0.168 | L -0.436 | M 0.074 | P -1.27 | Q -0.03 | R -0.019 | S -0.011 | T 0.162 | V -0.241 | W -0.559 | Y -0.508
V67: A -0.121 | C -0.027 | D -0.646 | E -0.145 | F -0.24 | G -0.425 | H -0.321 | I -0.323 | L -0.222 | M -0.061 | N -0.538 | P -1.03 | Q -0.439 | R -0.409 | S -0.073 | T -0.262 | W -0.665 | Y -0.347
G68: A -0.777 | C -0.808 | D -0.267 | H -0.657 | K -0.454 | L -0.749 | M -0.851 | N -0.753 | P -0.894 | Q -0.944 | R -0.903 | S -0.954 | T -0.849 | W -0.806
M69: A -0.639 | C -0.937 | D -0.694 | E -0.57 | F 0.058 | G -0.703 | H -1.06 | I -0.581 | K -0.931 | L -0.431 | N -0.642 | P -0.782 | Q -0.752 | R -0.729 | T -0.54 | V -0.749 | W -0.231 | Y -0.259
L70: A -0.004 | C -0.098 | D 0.069 | E 0.101 | F -0.066 | G -0.084 | H -0.158 | I 0.034 | K 0.13 | M -0.03 | N 0.032 | P -0.044 | Q -0.035 | R 0.014 | S 0.083 | T 0.011 | V 0.107 | W -0.032 | Y -0.646
K71: A -0.109 | C -0.006 | D -0.102 | E -0.07 | F -0.305 | G -0.166 | I -0.047 | L -0.148 | M -0.063 | N -0.147 | P -0.19 | Q -0.153 | S -0.025 | T -0.106 | V -0.02 | W -0.242 | Y -0.222
E72: A -0.088 | C -0.262 | D -0.012 | F -0.556 | G -0.122 | H -0.368 | I -0.299
